Reference: article PMC11182496, “Dissecting positive selection events and immunological drives during the evolution of adeno-associated virus lineages” (PLOS Pathogens, 2024)

Legend:
[1] = target: AAV2-G548 capsid (adeno-associated virus 2)
[2] = target: AAV2-G548 capsid (adeno-associated virus 2); test: ELISA; plates coated with 10^9 vector genomes of AAV variants in 0.1 M sodium bicarbonate buffer pH 9.6 overnight at 4°C; antibody serially diluted in PBS with 1% BSA, 37°C for 1.5 hours; anti-mouse IgG-HRP, OD450; EC50 from a sigmoidal fit
[3] = target: AAV2-E548 capsid (wild-type AAV2 capsid) (Adeno-associated virus 2, wild type …, UniProt P03135); test: cell-based or functional assay
Sequence of AAV2-E548 capsid (wild-type AAV2 capsid) (P03135 whole entry, looked up, the tested form may be a part): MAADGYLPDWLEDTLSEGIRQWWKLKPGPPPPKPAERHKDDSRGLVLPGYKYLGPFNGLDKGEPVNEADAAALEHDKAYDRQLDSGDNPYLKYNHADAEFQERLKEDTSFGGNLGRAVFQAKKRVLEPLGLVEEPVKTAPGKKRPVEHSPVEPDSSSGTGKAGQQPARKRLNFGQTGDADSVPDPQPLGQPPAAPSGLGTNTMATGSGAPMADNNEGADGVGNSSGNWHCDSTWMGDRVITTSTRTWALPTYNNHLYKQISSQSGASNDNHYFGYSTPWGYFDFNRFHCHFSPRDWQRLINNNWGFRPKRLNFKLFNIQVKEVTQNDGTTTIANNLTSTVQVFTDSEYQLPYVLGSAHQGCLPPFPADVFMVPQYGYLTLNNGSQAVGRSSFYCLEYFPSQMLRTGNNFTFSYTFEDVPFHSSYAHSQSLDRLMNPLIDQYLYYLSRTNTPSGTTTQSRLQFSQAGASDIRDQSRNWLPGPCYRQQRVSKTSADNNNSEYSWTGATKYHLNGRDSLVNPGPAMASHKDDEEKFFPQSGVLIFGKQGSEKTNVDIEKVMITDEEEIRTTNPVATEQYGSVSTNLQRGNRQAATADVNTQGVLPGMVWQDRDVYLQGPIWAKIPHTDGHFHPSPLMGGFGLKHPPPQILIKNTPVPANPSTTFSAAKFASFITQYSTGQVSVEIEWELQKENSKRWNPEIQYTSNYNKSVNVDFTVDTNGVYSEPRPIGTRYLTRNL

B1: mouse monoclonal antibody A20 (antibody, V domains shown)
VH: DVQLQESGPDLVKPSQSLSLTCTVTGYSITSGYTWHWIRQFPGNKQEWMGYIHFSGYTNYNPSLKSRVSITRDTSKNQFFLHLNSVTTEDTATYYCARGDYGYEWFTYWGQGTLVTVSA
VL: DIQMTQSSSSFSVSLGDRVTITCKASEDIHNRLAWYKQKPGNAPRLLISGATSLETGVPSRFSGSGSGKDYTLSITSLQNEDVATYYCQQYWIGPFTFGSGTNLEIK
[1]
  neutralization of the lacZ AAV vector's transduction of 293 cells (β-galactosidase assay), average IC50: 0.201 µg/mL
[2]
  OD450 at the highest A20 concentration (10 μg/ml): 0.132 OD450
[3]
  neutralization of the lacZ AAV vector's transduction of 293 cells (β-galactosidase assay), average IC50: 0.2 µg/mL
